These are literature values, as cited in paper PMC11827629.

The test system of this data set is thrombin (as in cited literature). Nature of the data set: cited. Conditions: smFRET: 1x PBS with 2.5 mM PCA, 0.155 U/ul PCD, 1 mM Trolox, 5 nM Cy3-aptamer, 23 +/- 1 C, pH not stated; QCM: PBS, flow 45 +/- 3 ul/min, thrombin 0.06-16.5 nM.

As to NU172 (cited), the equilibrium dissociation constant (Kd) was 3.2 nM. As to RE31 (cited), the dissociation constant (Kd) is 1.4 nM. Regarding HD1 (cited), the Kd was 7.1 nM.

As usually defined, the Kd is a measure of binding affinity in units of concentration.
